Results published in the DeepSol protein solubility set.

Assay: soluble on expression in E. coli; label from the status in PepcDB or PDB records

Row | Sequence | soluble on expression in E. coli
1 | MELSSPITIYWDLPATAADPSLLLAIAAGIIDCRPLMLNVTSTAPTSPGWLGEVLERFRGGPAAVTLTIPPQAHDDTVRALVAHGAVRELLLDVDHADLLDSGEWQDEPSAGVSYAVTHGNWRELPTLVHYCLDRGITRLVLPMQRLYGGEPPFFLTMNEQRELANALDAEGGAQRLALTIHDPFLWRAFNPGVPFPQGGCQAANTMIAIAPDGGVYPCPTLPVRLGTAGEMPLQELIASEAKKALRRRLLEHPRACGACGELAECRGGCRGRAYVMHQSLEGEDPSCWLEHHHHHH | not soluble
2 | MGHHHHHHGSTTQRNAQIAMGRKKFNMDPKKGIQFLIENDLLQSSPEDVAQFLYKGEGLNKTVIGDYLGERDDFNIKVLQAFVELHEFADLNLVQALRQFLWSFRLPGEAQKIDRMMEAFASRYCLCNPGVFQSTDTCYVLSFAIIMLNTSLHNHNVRDKPTAERFITMNRGINEGGDLPEELLRNLYESIKNEPFKIPEDDGNDLTHTFFNPDREGWLLKLGGRVKTWKRRWFILTDNCLYYFEYTTDKEPRGIIPLENLSIREVEDPRKPNCFELYNPSHKGQVIKACKTEADGRVVEGNHVVYRISAPSPEEKEEWMKSIKASISRDPFYDMLATRKRRIANKK | soluble
3 | MDEVDVALIGAGIMSATLGAMLRTLEPGWTQVMFERLDAPAQESSSPWNNAGTGHSALCELNYTPEVKGRVQIDKALGVNEKFQISRQFWSYQVNEGVLPSPREWINPVPHVSFGRGEDQVAYLKKRYEALAAHPLFPNMQYTDDRAKFAEMLPLMADGRSEFEKVAISWTDAGTDINYGSQTRQFLKAAEKNGTEIRYGHEVKDIKRDGAKWRVTVKNVHTGDTQVIRANFVFVGAGGMALPLLQKTGLEHHHHHH | soluble
4 | MWELAEVQEPEAWNRLVSGFAITSPLQSWGWGEVKRTTGWEPRRFLLLGGEGPVAAAQVLLKAAPGGLRLAYAPRGPALHRLEDLPEVARALGRALRATHLVLEPEAGLPAHLPAPRFPGLLLEEPIQPAHSLWLDLTQGEEALLKGMKEMHRRNARLALKRVALSVEGEEAFAEFYRLFTETNRRARLLQHDEAYYRAVLKEMNQPLGEAFLALARKDGEALAAGLFVAFAGKVAYLYGGSTRKHPEAKAPMGMHLAAIRHGMARGYRVYDLWGIPKNPRGSHAEGIHRFKEGFGGQRVQFPAYVLPLSPLYRPLGLLLRLRKTWVNLRVRGNPRDVLG | soluble
5 | ALVGDNLEQIDARLVNSLPLFKDQEGRDVNVRVGRYGPYLERQVGVSEDGEPEYQRANLSDSTTPDELTLELAEKLFATPQSGRELGRNPKNNRMIVAKEGRFGPYVTELVNDDERTEVEAKAEEIVAAEREAEDLQRAAEGKRAKNWGTKTAAAQKEKRIAQIIEETLKPSTASLFKTMEPSSVTLDEALQLLALPREVGVDPSDNEVITAQNGRYGPYLKKGSDSRTLASEDQIFSITLDEARRIYAEPKRRGRGATSQSVIKQLGDNDVSGKPMSVRDGRFGPYVTDGTTNASLRRGDDPTQLTEARANELLSERRAKEAADGGSSKKATKKASKKTTKRVAKAGARKKK | not soluble
6 | MTPTPLHSITPFSMLDFPSMLSCILWFSGCNLACSYCYNPEFLKESGKIDLEGLLSFLRSRVGLLEGVVFSGGEATLFAGLPLWMEEVRSLGFKIKLDTNGTNPAMLKELLQKGYLDYVAMDFKGKEERFGMITGREFYGRFLESLEILLSSSIPFEIRTTVHSYLLQEEDIAEMAALLKERG | not soluble
7 | MSLVKKGAALLMVATMALSSAACSNSKTEGKPEVQAKVAPVEKNGDKTVIRFWHAMGGKTQGVLDGLVADYNKSQNKYEIKAEFQGTYEESLTKFRTMSATKEAPALVQSSEITTKYMIDSKKITPIDSWIKKDKYDTSKLEKAITNYYSVDGKMYSMPFNSSTPVLIYNKDAFAKAGLDPEKAPKTYAELQEAAKKLTIKEGGNVKQYGFSMLNYGWFFEELLATQGALYVDNENGRKDAAKKAVFNGKEGQKVFGMLDDLNKAGALGKYGASWDDIRAAFQSGQVAMYLDSSAGVRDLIDASKFNVGVSYIPYPEDSKQNGVVIGGASLWMTNMVSEETQQGAWDFMKYLTKPDVQAKWHTATGYFSINPDAYNEPLVKEQYEKYPQLKVTVDQLQATKQSPATQGALISVFPESRDAVVKALEAMYDGKNSKEALDEAAKATDRAISISARTSQK | not soluble
8 | MSPVVSEASPERWDDETDVLVIGSGAGGLSAALFAAQAGLRVLICEKLAYVGGTTATSGGGIWVPGTKAGLAAGDTLEAARTYLKALLGDFYQEEVIDTYLATGGKVIDFLNENTEVKFDLSSWPDYRSSLPGGATRGRSLFPQPFDGKKLGRNFSLLHPPLHRLMVLGGLMLGPEEVHDFLRPFSSPRALMRVLRKLLRYGMDRIRYARGTDLRSGNALAARLLYSVDKLGCRILTQADLESLAIDHDRVIGATVVVGGVPKRIRASKAVLLATGGFAHNQEMLRRYGPATPHRFSLCNPACTGAGIQAALDAGASVDRELSSVGFWTPASASREKNGADTPVIYGYLDRGRPGVIAVNEQGERFVNEANSYHDIVTAIFANGGADGKPFYFITDREFVRRHGLGLIRPWPWNRSLRPWIRRGYITVASTLDKLGPKIGIDPGALAAAVQRHNQSARTGQDPDFHKGASAYNRMFGHNMTWPNPNLAPIETPPFVALRIHPATIGTAMGLKTSASGQALNAAGQPISGLYACGNNQASPFRGFYPGGGSTLGPAIVGAYLAVQSLSKPLEHHHHHH | soluble
9 | MGSDKIHHHHHHMNIFDNILSSATIFKNRDVLRHSYTPEKLPHREEQINQLALLLSPMLRGGTPSNIFIYGKTGTGKTATVLFVARQLEEASRKAKLNVAVHYINCEIVDTAYRVLASLARKFGSNVPMTGWPTDQVYEEVKKALERRGTRVVVILDEIDKLVKKAEEALYGLTRINSELENSSICIVGISNNLKFKEYLDARILSSLSEEEIVFPPYNAEQLEDILQQRAKLAFEDGVLEDGVIQLCAAIAAQEHGDARKALDLLRVSAEIAERERDSMVRVEHVKKAVRKIETDYMIETVRTLPVHSKILLYSMSLISENSPKFTTGEVYCVYKKLCGKVGVDPLTQRRISDLISELDMLGILNSVVISKGRYGRTREMKLEADEKVLRKALEEDYRLQNLRKFEGELKKLANLNLFQF | not soluble
10 | MSLKNIFSVLEERVERTPDDNLVEYKNAQGEWAAFTAAEFKNKVVALAKGLIARGVMPGDSVSIIAHTCWQWTALDVAIMSIGALTVPVYETNSPAQVKMIFNDANVKMAFAEDDFQRDKIESVRDQCPDLGDVYVIGLGAIDTIIEYGRAVSDAEFLEREQAVKGSDLATIVYTSGSTGTPKGVELTHANFVFITYSGVNSMPDIAMKPNRRLLLFLPLAHVFARYMQFFCFAGNVSLGLSSNLKTILADFKAFKPTFILAVPRIFEKIYNAASQKAGAGFKGRVFADATQTACDWSHAQQSGGSIPLALNAKHALYNKLVYSSIMEVFGGHVEYAVSGGAPLDSSIAHFFNGVGLSLLEGYGMTETCAPSSVNPTEGYKIGTIGLPLQGVTMGVDEEGELCIKSPAVCAGYHNNPDVTKQQIVDGWLHTGDLGSIDDDGFVSIVGRKKDLIITAGGKNVSPCEMEASIMTSPVVSQCVMIGDRKPFIAAIISLDLAETNLWLESKGAEQVADLDEASKNPIVRAEVERAVNKANELASRAESIRKFEIVPDEFTEENGLVTPSMKARRQAVVEHYRTLIDKEGHHHHHH | not soluble
11 | MGSDKIHHHHHHMAINTTPLSESSKNNPDKQNNFVIALAGNPNVGKSTVFNRLTGLKQHTGNWPGKTVIKAEGTFSHRNRHYTLVDLPGTYSLHASSSDEEVARNFICFSRPDITLVVCDATCLERNLNLVLQILEITDRVLVCVNLLDEAERKGIQVDIAMLARQLGIPVVGTAARSGRGLESLKNVLDDMLAGKIAIQPRQLVYDPELEASINRIEKRLAPYLPAWINSRWVTLRVLERDFSILEHISNHKNNDFPRQVLKEEVALCLR | not soluble
12 | MSLSRHSNTPATDASVLLVQLSDSHLFAEDGARLLGMDTAHSLEKVVERVAREQPRIDLILATGDVSQDGSLDSYTRFRRLSAPLDAPLRWFAGNHDEREPMQRATEGSDLLEQVVDVGNWRVVLLDSSIPGAVPGYLEEDQLELLRRAIDSAGERFLLVSFHHHPVPIGSDWMDPIGLRNPQALFDLLAPYPQVRCLLWGHIHQEFDRQRGPLRLLASPSTCVQFAPGSSDFTLDRLAPGYRWLRLHDDGRLETGISRVDDVVFEVDYDTAGYEGGSHHHHHH | soluble
